In patent publication EP1615032A1 (Kido, Hiroshi, dated 2006):

Biological target: T1, purified mouse VDAC protein (mouse, UniProt Q3U6K8 2-283)
T1 construct: Used as a 100 ng/ml solution over dot-blotted ligands; also called voltage-dependent anion channel
Experiment: dot blot on nitrocellulose; bound VDAC detected with anti-VDAC antibody and ECL

B1: human microplasmin (enzyme, UniProt P00747 550-810, looked up)
chain: KLYDYCDVPQCAAPSFDCGKPQVEPKKCPGRVVGGCVAHPHSWPWQVSLRTRFGMHFCGGTLISPEWVLTAAHCLEKSPRPSSYKVILGAHQEVNLEPHVQEIEVSRLFLEPTRKDIALLKLSSPAVITDKVIPACLPSPNYVVADRTECFITGWGETQGTFGAGLLKEAQLPVIENKVCNRYEFLNGRVQSTELCAGHLAGGTDSCQGDSGGPLVCFEKDKYILQGVTSWGLGCARPNKPGVYVRVSRFVTWIEGVMRNN
notes: 50 ng dot blotted onto a nitrocellulose membrane; also called microplasmin having no Kringle domain
B1: no binding.
